Assay results from the supplement of paper PMC11246515.
± gives the standard deviation of the averaged measurements.

Experiment: total protein half-life in vivo (active degradation + dilution); higher = more stable protein
[1] = E. coli NCM3722 delta-clpP delta-lon delta-hslV, growth: N-lim chemostat, doubling time 6 h
[2] = E. coli NCM3722 delta-clpP, growth: N-lim chemostat, doubling time 6 h
[3] = E. coli NCM3722 delta-hslV, growth: N-lim chemostat, doubling time 6 h
[4] = E. coli NCM3722 delta-lon, growth: N-lim chemostat, doubling time 6 h
[5] = E. coli NCM3722 delta-smpB, growth: N-lim chemostat, doubling time 6 h
[6] = wild type E. coli NCM3722, growth: C-lim chemostat, doubling time 3 h
[7] = wild type E. coli NCM3722, growth: C-lim chemostat, doubling time 6 h
[8] = wild type E. coli NCM3722, growth: C-lim chemostat, doubling time 12 h
[9] = wild type E. coli NCM3722, growth: N-lim chemostat, doubling time 6 h
[10] = wild type E. coli NCM3722, growth: N-lim chemostat, doubling time 12 h
[11] = wild type E. coli NCM3722, growth: P-lim chemostat, doubling time 6 h
[12] = wild type E. coli NCM3722, growth: P-lim chemostat, doubling time 12 h

MKYDTSELCDIYQEDVNVVEPLFSNFGGRASFGGQIITVKCFEDNGLLYDLLEQNGRGRVLVVDGGGSVRRALVDAELARLAVQNEWEGLVIYGAVRQVDDLEELDIGIQAMAAIPVGAAGEGIGESDVRVNFGGVTFFSGDHLYADNTGIILSEDPLDIE [P0A8R0]
total protein half-life in vivo [1]: 5.37 ± 0.18 h
total protein half-life in vivo [2]: 5.11 ± 0.26 h
total protein half-life in vivo [3]: 5.16 ± 0.12 h
total protein half-life in vivo [4]: 4.57 ± 0.28 h
total protein half-life in vivo [5]: 4.26 ± 0.1 h
total protein half-life in vivo [6]: 3.25 ± 0.3 h
total protein half-life in vivo [7]: 6.31 ± 1.1 h
total protein half-life in vivo [8]: 13.4 ± 0.22 h
total protein half-life in vivo [9]: 5.06 ± 0.22 h
total protein half-life in vivo [10]: 8.11 ± 0.27 h
total protein half-life in vivo [11]: 6.02 ± 0.41 h
total protein half-life in vivo [12]: 12.7 ± 1.7 h

MQLNITGNNVEITEALREFVTAKFAKLEQYFDRINQVYVVLKVEKVTHTSDATLHVNGGEIHASAEGQDMYAAIDGLIDKLARQLTKHKDKLKQH [P0AFX0]
total protein half-life in vivo [1]: 4.19 ± 0.41 h
total protein half-life in vivo [2]: 3.97 ± 0.51 h
total protein half-life in vivo [3]: 3.49 ± 0.22 h
total protein half-life in vivo [4]: 4.08 ± 0.13 h
total protein half-life in vivo [5]: 3.67 ± 0.043 h
total protein half-life in vivo [6]: 2.51 ± 0.14 h
total protein half-life in vivo [7]: 4.75 ± 0.17 h
total protein half-life in vivo [8]: 8.14 ± 0.53 h
total protein half-life in vivo [9]: 3.39 ± 0.5 h
total protein half-life in vivo [10]: 7.37 ± 0.34 h
total protein half-life in vivo [11]: 4.21 ± 0.12 h
total protein half-life in vivo [12]: 7.16 ± 0.65 h

MKLYIYDHCPYCLKARMIFGLKNIPVELHVLLNDDAETPTRMVGQKQVPILQKDDSRYMPESMDIVHYVDKLDGKPLLTGKRSPAIEEWLRKVNGYANKLLLPRFAKSAFDEFSTPAARKYFVDKKEASAGNFADLLAHSDGLIKNISDDLRALDKLIVKPNAVNGELSEDDIQLFPLLRNLTLVAGINWPSRVADYRDNMAKQTQINLLSSMAI [P0AC59]
total protein half-life in vivo [2]: 5.06 ± 0.73 h
total protein half-life in vivo [3]: 5.49 ± 0.35 h
total protein half-life in vivo [4]: 5.77 ± 0.24 h
total protein half-life in vivo [5]: 5.01 ± 0.41 h
total protein half-life in vivo [7]: 5.57 ± 0.23 h
total protein half-life in vivo [8]: 11.7 ± 1.8 h
total protein half-life in vivo [9]: 5.02 ± 0.15 h
total protein half-life in vivo [10]: 9.43 ± 0.3 h
total protein half-life in vivo [11]: 5.33 ± 0.55 h
total protein half-life in vivo [12]: 11.9 ± 0.21 h

MPKFRVSLFSLALMLAVPFAPQAVAKTAAATTASQPEIASGSAMIVDLNTNKVIYSNHPDLVRPIASISKLMTAMVVLDARLPLDEKLKVDISQTPEMKGVYSRVRLNSEISRKDMLLLALMSSENRAAASLAHHYPGGYKAFIKAMNAKAKSLGMNNTRFVEPTGLSVHNVSTARDLTKLLIASKQYPLIGQLSTTREDMATFSNPTYTLPFRNTNHLVYRDNWNIQLTKTGFTNAAGHCLVMRTVINNKPVALVVMDAFGKYTHFADASRLRTWIETGKVMPVPAAALSYKKQKAAQMAAAGQTAQND [P0AFI5]
total protein half-life in vivo [1]: 3.37 ± 0.94 h
total protein half-life in vivo [2]: 4.68 ± 1.7 h
total protein half-life in vivo [3]: 2.57 ± 0.64 h
total protein half-life in vivo [4]: 2.78 ± 0.39 h
total protein half-life in vivo [5]: 1.81 ± 0.06 h
total protein half-life in vivo [6]: 1.2 ± 0.078 h
total protein half-life in vivo [7]: 1.65 ± 0.34 h
total protein half-life in vivo [8]: 5.03 ± 1.2 h
total protein half-life in vivo [9]: 2.93 ± 0.48 h
total protein half-life in vivo [10]: 3.05 ± 0.18 h
total protein half-life in vivo [11]: 3.78 ± 3.8 h
total protein half-life in vivo [12]: 5.78 ± 1.1 h

MKYRIALAVSLFALSAGSYATTLCQEKEQNILKEISYAEKHQNQNRIDGLNKALSEVRANCSDSQLRADHQKKIAKQKDEVAERQQDLAEAKQKGDADKIAKRERKLAEAQEELKKLEARDY
total protein half-life in vivo [1]: 3.72 ± 0.12 h
total protein half-life in vivo [2]: 3.7 ± 0.11 h
total protein half-life in vivo [4]: 5.2 ± 0.22 h
total protein half-life in vivo [5]: 4.66 ± 0.41 h
total protein half-life in vivo [7]: 5.88 h
total protein half-life in vivo [8]: 7.58 ± 0.055 h
total protein half-life in vivo [9]: 5.07 ± 1.1 h
total protein half-life in vivo [10]: 9.61 ± 1.1 h
total protein half-life in vivo [11]: 4.12 h
total protein half-life in vivo [12]: 10.6 h

MKFKVIALAALMGISGMAAQANELPDGPHIVTSGTASVDAVPDIATLAIEVNVAAKDAATAKKQADERVAQYISFLELNQIAKKDISSANLRTQPDYDYQDGKSILKGYRAVRTVEVTLRQLDKLNSLLDGALKAGLNEIRSVSLGVAQPDAYKDKARKAAIDNAIHQAQELANGFHRKLGPVYSVRYHVSNYQPSPMVRMMKADAAPVSAQETYEQAAIQFDDQVDVVFQLEPVDQQPAKTPAAQ [P0ADS6]
total protein half-life in vivo [1]: 6.45 ± 0.46 h
total protein half-life in vivo [2]: 6.67 ± 0.7 h
total protein half-life in vivo [4]: 6.77 ± 1.2 h
total protein half-life in vivo [5]: 5.98 ± 0.096 h
total protein half-life in vivo [6]: 3.2 ± 0.14 h
total protein half-life in vivo [7]: 5.88 ± 0.43 h
total protein half-life in vivo [8]: 12.1 ± 1.4 h
total protein half-life in vivo [9]: 5.83 ± 0.65 h
total protein half-life in vivo [10]: 12.1 ± 1.2 h
total protein half-life in vivo [11]: 5.59 ± 0.14 h
total protein half-life in vivo [12]: 11.7 ± 0.76 h

MAIEIKVPDIGADEVEITEILVKVGDKVEAEQSLITVEGDKASMEVPSPQAGIVKEIKVSVGDKTQTGALIMIFDSADGAADAAPAQAEEKKEAAPAAAPAAAAAKDVNVPDIGSDEVEVTEILVKVGDKVEAEQSLITVEGDKASMEVPAPFAGTVKEIKVNVGDKVSTGSLIMVFEVAGEAGAAAPAAKQEAAPAAAPAPAAGVKEVNVPDIGGDEVEVTEVMVKVGDKVAAEQSLITVEGDKASMEVPAPFAGVVKELKVNVGDKVKTGSLIMIFEVEGAAPAAAPAKQEAAAPAPAAKAEAPAAAPAAKAEGKSEFAENDAYVHATPLIRRLAREFGVNLAKVKGTGRKGRILREDVQAYVKEAIKRAEAAPAATGGGIPGMLPWPKVDFSKFGEIEEVELGRIQKISGANLSRNWVMIPHVTHFDKTDITELEAFRKQQNEEAAKRKLDVKITPVVFIMKAVAAALEQMPRFNSSLSEDGQRLTLKKYINIGVAVDTPNGLVVPVFKDVNKKGIIELSRELMTISKKARDGKLTAGEMQGGCFTISSIGGLGTTHFAPIVNAPEVAILGVSKSAMEPVWNGKEFVPRLMLPISLSFDHRVIDGADGARFITIINNTLSDIRRLVM
total protein half-life in vivo [1]: 6.49 ± 0.23 h
total protein half-life in vivo [2]: 6.08 ± 0.4 h
total protein half-life in vivo [3]: 6.48 ± 0.081 h
total protein half-life in vivo [4]: 6.36 ± 0.067 h
total protein half-life in vivo [5]: 5.78 ± 0.37 h
total protein half-life in vivo [6]: 3.08 ± 0.092 h
total protein half-life in vivo [7]: 5.778 ± 0.018 h
total protein half-life in vivo [8]: 10.6 ± 0.66 h
total protein half-life in vivo [9]: 6.19 ± 0.27 h
total protein half-life in vivo [10]: 12.3 ± 0.84 h
total protein half-life in vivo [11]: 6.07 ± 0.26 h
total protein half-life in vivo [12]: 12.5 ± 0.53 h
